Experimental data published in patent publication US20240115745A1, “COMPOUNDS COMPRISING A FIBROBLAST ACTIVATION PROTEIN LIGAND AND USE THEREOF” (3B PHARMACEUTICALS GMBH, priority 2021, published 2024).
Bridges are numbered along the chain shown (N, C = ends). [ ]: non-standard residue; d: D form. The star is where a group is joined. mli = maleimide cyclization element: 3,4-maleimide inserted symmetrically, forming a vinyl thioether with each Cys sulfur; Ttds = 1,13-diamino-4,7,10-trioxatridecan-succinamic acid, NCCCOCCOCCOCCCNC(=O)CCC(=O)*; mli(DOTA-Ttd) = 3,4-N-(DOTA-Ttd)-maleimide bridging two Cys S atoms as vinyl thioethers; DOTA = O=C(O)CN1CCN(CC(=O)O)CCN(CC(=O)*)CCN(CC(=O)O)CC1; Nle = CCCC[C@H](N)C(=O)O; Hexanoyl = CCCCCC(=O)*

B1: compound DOTA-Nle-[Cys-Pro-Pro-Thr-Glu-Phe-Cys]-Asp-NH2 (1004) (peptide)
peptide: CPPTEFCD
HELM: PEPTIDE1{[O=C(O)CN1CCN(CC(=O)O)CCN(CC(=O)[*:2])CCN(CC(=O)O)CC1].[Nle].C.P.P.T.E.F.C.D.[am]}$PEPTIDE1,PEPTIDE1,3:R3-9:R3$$$V2.0
SMILES: CCCC[C@H](NC(=O)CN1CCN(CC(=O)O)CCN(CC(=O)O)CCN(CC(=O)O)CC1)C(=O)N[C@H]1CSSC[C@@H](C(=O)N[C@@H](CC(=O)O)C(N)=O)NC(=O)[C@H](Cc2ccccc2)NC(=O)[C@H](CCC(=O)O)NC(=O)[C@H]([C@@H](C)O)NC(=O)[C@@H]2CCCN2C(=O)[C@@H]2CCCN2C1=O

Target: fibroblast activation protein (FAP) on FAP-expressing human WI-38 fibroblasts (human), Q12884
Experiment: competitive FACS on WI-38 cells vs 3 nM Cy5-labeled probe; A = pIC50 >7.0
Conditions: remark: other sources report otherwise

Which pIC50 Category (FACS) does the source give for Hexanoyl-CPPTEFCD-NH2 (linker 1-7 via mli(DOTA-Ttd)) [compound Hex-[Cys(mli(DOTA-Ttd))-Pro-Pro-Thr-Glu-Phe-Cys]-Asp-NH2 (2020)] here?
Its pIC50 Category (FACS) is over 7 pIC50.

Which pIC50 Category (FACS) does the source give for {DOTA-Ttds}-[Nle]CPPTEFCD-NH2 (linker 2-8 via mli) [compound DOTA-Ttds-Nle-[Cys(mli)-Pro-Pro-Thr-Glu-Phe-Cys]-Asp-NH2 (2007)] here?
Its pIC50 Category (FACS) is over 7 pIC50.

With {DOTA-Ttds}-[Nle]CPPTEFCD-NH2 (disulfide 2-8) [compound DOTA-Ttds-Nle-[Cys-Pro-Pro-Thr-Glu-Phe-Cys]-Asp-NH2 (1003)] as the binder, how does the pIC50 Category (FACS) read?
The pIC50 Category (FACS) was over 7 pIC50.

With B1 as the binder, how does the pIC50 Category (FACS) read?
Its pIC50 Category (FACS) is over 7 pIC50.
